In patent publication US20180142032A1 (Sanofi, published 2018):
Changes are numbered by the printed parent chain. Names may count otherwise. Like-named read-outs stand apart in the source and are kept apart here.

Experiments:
[1] = molecular target: T1, human LAMP1 at the cell surface (human, UniProt P11279 29-417); assay: cell-based or functional assay
T1 sequence: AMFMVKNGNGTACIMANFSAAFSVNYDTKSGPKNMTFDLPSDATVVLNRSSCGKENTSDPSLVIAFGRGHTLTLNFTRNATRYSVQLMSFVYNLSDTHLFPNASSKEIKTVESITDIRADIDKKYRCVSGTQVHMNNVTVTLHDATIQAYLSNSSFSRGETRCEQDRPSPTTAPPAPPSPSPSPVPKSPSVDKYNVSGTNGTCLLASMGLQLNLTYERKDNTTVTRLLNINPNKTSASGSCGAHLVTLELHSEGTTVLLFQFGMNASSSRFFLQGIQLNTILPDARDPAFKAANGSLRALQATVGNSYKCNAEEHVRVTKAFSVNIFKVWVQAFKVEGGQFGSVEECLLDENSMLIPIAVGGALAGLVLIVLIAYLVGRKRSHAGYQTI

[2] = molecular target: T2, mLAMP1_L12_LAMP1_L34::histag (mouse/human hybrid); assay: ELISA
T2 construct: mouse LAMP1 (25-189) and human LAMP1 (196-382), His tag; also called Loop1-2: mLAMP1 Loop3-4: hLAMP1
T2 chain: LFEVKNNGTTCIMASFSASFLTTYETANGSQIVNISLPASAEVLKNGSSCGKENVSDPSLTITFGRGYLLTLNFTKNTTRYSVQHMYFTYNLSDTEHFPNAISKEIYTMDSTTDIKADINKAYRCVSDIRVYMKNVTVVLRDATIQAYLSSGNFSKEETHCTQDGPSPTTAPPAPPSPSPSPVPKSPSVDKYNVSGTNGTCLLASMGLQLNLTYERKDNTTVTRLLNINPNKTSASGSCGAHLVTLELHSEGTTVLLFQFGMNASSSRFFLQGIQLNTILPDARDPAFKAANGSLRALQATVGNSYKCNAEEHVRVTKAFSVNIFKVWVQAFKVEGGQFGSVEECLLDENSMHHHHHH

mLAMP1::histag = molecular target: T3, mLAMP1::histag (mouse, UniProt P11438 25-369); assay: ELISA
T3 construct: also called mouse LAMP1 (25-369); Mouse LAMP1
T3 sequence: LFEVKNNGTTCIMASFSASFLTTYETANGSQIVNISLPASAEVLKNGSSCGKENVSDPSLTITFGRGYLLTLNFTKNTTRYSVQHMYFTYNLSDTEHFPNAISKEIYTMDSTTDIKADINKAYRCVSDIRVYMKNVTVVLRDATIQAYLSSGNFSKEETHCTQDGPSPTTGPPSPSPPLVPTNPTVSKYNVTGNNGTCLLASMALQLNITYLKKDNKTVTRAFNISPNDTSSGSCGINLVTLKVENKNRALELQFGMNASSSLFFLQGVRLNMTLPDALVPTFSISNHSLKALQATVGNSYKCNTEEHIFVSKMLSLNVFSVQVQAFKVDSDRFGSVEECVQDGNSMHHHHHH

[3] = molecular target: T1, human LAMP1 at the cell surface; assay: flow cytometry, HCT116 huLAMP1 clone 8
Protocol: 100 μL/well of goat anti-human IgG conjugated with Alexa488 (Invitrogen; # A11013) was added for 1 h at 4° C. and washed two times with PBS 1% BSA. The antibody binding was evaluated after centrifugation and resuspension of cells in 100 ul fixing solution (paraformaldehyde at 4% in PBS). Samples were read using Galaxy® Flow Cytometry System (Partec).

LAMP1::histag = molecular target: T4, LAMP1::histag (human, UniProt P11279 29-382); assay: ELISA on secreted human LAMP1
T4 construct: extracellular domain without signal peptide, C-terminal 6 His tag, made in HEK293 cells; also called recombinant human LAMP1; human LAMP1 (29-382)
T4 sequence: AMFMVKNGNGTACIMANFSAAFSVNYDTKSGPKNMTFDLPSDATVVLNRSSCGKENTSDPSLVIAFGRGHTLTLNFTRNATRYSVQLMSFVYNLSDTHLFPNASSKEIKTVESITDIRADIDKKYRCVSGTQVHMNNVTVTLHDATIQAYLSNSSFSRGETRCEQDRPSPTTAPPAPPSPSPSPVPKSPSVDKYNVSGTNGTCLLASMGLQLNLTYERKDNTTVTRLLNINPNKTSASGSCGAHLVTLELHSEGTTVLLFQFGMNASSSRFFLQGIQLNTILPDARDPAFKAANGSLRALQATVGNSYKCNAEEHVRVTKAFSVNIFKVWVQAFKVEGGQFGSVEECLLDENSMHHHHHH

[4] = molecular target: T5, mLAMP1_L1_LAMP1_L234::histag (mouse/human hybrid); assay: ELISA
T5 construct: also called Loop1: mLAMP1 Loop2-4: hLAMP1
T5 chain: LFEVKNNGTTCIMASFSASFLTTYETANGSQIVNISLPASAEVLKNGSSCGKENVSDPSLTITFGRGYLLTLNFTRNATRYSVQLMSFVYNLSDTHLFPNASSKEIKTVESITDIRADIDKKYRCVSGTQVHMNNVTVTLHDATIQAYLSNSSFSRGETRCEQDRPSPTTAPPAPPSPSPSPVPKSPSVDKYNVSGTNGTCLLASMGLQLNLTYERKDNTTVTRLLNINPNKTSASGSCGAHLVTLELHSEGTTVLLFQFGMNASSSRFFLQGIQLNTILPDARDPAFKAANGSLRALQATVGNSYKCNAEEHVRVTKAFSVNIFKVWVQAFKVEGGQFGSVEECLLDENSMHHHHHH

LAMP1_mL1_hL234_ΔGYQTI = molecular target: T6, LAMP1_mL1_hL234_ΔGYQTI (mouse; human); assay: flow cytometry, transfected 293-F cells
T6 construct: on cells; also called pXL5668
T6 chain: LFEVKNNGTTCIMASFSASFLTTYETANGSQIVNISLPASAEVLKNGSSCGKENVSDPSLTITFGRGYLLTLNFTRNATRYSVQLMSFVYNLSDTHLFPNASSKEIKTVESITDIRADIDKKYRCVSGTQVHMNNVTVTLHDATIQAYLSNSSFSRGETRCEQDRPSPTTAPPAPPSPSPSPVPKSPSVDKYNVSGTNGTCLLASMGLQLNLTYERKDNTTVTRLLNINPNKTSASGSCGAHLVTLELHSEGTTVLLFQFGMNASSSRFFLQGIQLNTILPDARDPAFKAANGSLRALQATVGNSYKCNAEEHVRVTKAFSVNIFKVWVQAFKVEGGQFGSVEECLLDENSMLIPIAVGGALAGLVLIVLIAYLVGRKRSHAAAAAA

hLAMP1_ΔGYQTI = molecular target: T7, hLAMP1_ΔGYQTI (human, UniProt P11279 29-412); assay: flow cytometry, transfected 293-F cells
T7 construct: also called pXL5626
T7 sequence: T1 sequence with G385A, Y386A, Q387A, T388A, I389A

[5] = molecular target: T1, human LAMP1 at the cell surface; assay: flow cytometry, HCT116 huLAMP1 clone 8; remark: listed apart in the source
Protocol: HCT116 cells were infected by a lentiviral vector allowing stable integration of the human or the cynomolgus LAMP1 CDS in genomic DNA of cells. Individual clones with different densities of human or cynomolgus LAMP1 cell surface localization were derived from a pool of HCT116 infected cells. […] 100 μL/well of goat anti-human IgG conjugated with Alexa488 (Invitrogen; # A11013) was added for 1 h at 4° C. and washed two times with PBS 1% BSA. The antibody binding was evaluated after centrifugation and resuspension of cells in 100 μl fixing solution (paraformaldehyde at 4% in PBS). Samples were read using Galaxy® Flow Cytometry System (Partec). EC50 values were estimated using BIOST@T-SPEED software.

[6] = molecular target: T8, cynomolgus monkey LAMP1 at the cell surface (cynomolgus monkey, UniProt P11279 29-417 (human entry)); assay: flow cytometry, HEK293 cynoLAMP1 clone 44
T8 construct: also called cynoLAMP1; cynomolgus LAMP1
T8 chain: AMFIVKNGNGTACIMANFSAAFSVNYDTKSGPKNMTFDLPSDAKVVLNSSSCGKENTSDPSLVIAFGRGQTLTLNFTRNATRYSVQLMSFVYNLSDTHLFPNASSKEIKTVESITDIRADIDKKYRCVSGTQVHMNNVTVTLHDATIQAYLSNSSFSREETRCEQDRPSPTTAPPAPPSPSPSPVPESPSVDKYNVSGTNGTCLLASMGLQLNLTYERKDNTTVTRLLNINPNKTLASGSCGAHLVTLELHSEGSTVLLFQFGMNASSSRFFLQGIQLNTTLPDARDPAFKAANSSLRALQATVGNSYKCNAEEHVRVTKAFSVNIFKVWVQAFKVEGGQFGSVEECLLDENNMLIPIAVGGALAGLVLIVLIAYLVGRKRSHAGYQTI

[7] = molecular target: T8, cynomolgus monkey LAMP1 at the cell …; assay: flow cytometry
[8] = molecular target: T1, human LAMP1 at the cell surface; assay: cell-based or functional assay; remark: listed apart in the source

B1: chMAb1 (antibody, human IgG1, kappa)
heavy: not shown
light: DIQMTQSPPSLSASLGGKVTITCKASQDIDRYMAWYQDKPGKGPRLLIHDTSTLQPGIPSRFSGSGSGRDYSFSISNLEPEDIATYYCLQYDNLWTFGGGTKLEIKRTVAAPSVFIFPPSDEQLKSGTASVVCLLNNFYPREAKVQWKVDNALQSGNSQESVTEQDSKDSTYSLSSTLTLSKADYEKHKVYACEVTHQGLSSPVTKSFNRGEC
notes: chimeric, human IgG1, Ckappa; also called MAb1 (chimeric)
- ADCC EC50, NK batch 67125626389 [1]: 0.05 nM
- ADCC EC50, NK batch 67125903091 [1]: 0.76 nM
- ADCC EC50, NK batch 67130127373 [1]: 0.009 nM
- ADCC EC50, NK batch 67130494552 [1]: 0.2 nM
- ADCC EC50, NK batch 67130496259 [1]: 0.6 nM
- binding result [2]: no binding
- binding result (mLAMP1::histag): no binding
- EC50 [3]: 6 nM
- EC50 (LAMP1::histag): 0.09 nM

B2: chMAb3 (antibody, human IgG1, kappa, V domains shown)
VH: QIQLVQSGPELKKPGETVKISCKASGYIFTNYGMNWVKQAPGKGLKWMGWINTYTGESRYADDFKGRFALSLETSASTAYLQINNLENEDMATYFCAREDYYGNSPWFFDVWGAGTTVTVSS
VL: DIQMTQTTSSLSASLGDRVTISCNASQGINKYLNWYQQKPDGTVKLLIYYTSTLHSGVPSRFSGSGSGTDYSLTINNLEPEDIATYYCQQYTKLPFTFGSGTKLEIKR
notes: chimeric, human IgG1, Ckappa
- binding result [4]: no binding
- binding result [2]: no binding
- binding result (mLAMP1::histag): no binding
- binding result (LAMP1_mL1_hL234_ΔGYQTI): no binding
- mean fluorescence (hLAMP1_ΔGYQTI): 640

B3: DM4-SPDB-huMAb1_1 (antibody, human IgG1, kappa)
heavy: not shown
light: DIQMTQSPSSLSASVGDRVTITCKASQDIDRYMAWYQDKPGKAPRLLIHDTSTLQSGVPSRFSGSGSGRDYTLTISNLEPEDFATYYCLQYDNLWTFGGGTKVEIKRTVAAPSVFIFPPSDEQLKSGTASVVCLLNNFYPREAKVQWKVDNALQSGNSQESVTEQDSKDSTYSLSSTLTLSKADYEKHKVYACEVTHQGLSSPVTKSFNRGEC
modifications: DM4 linked through SPDB, average DAR 3.4 per antibody; sites not stated
notes: antibody drug conjugate of huMAb1_1
- EC50 [5]: 12.7 nM
- EC50 [6]: 33.5 nM
- Ratio of EC50s (cynoLAMP1 against huLAMP1) [7]: 2.65
- cytotoxicity IC50, HCT116 huLAMP1 clone 8 [8]: 0.1 nM

B4: huMAb1_negB (antibody, human IgG1, kappa)
heavy: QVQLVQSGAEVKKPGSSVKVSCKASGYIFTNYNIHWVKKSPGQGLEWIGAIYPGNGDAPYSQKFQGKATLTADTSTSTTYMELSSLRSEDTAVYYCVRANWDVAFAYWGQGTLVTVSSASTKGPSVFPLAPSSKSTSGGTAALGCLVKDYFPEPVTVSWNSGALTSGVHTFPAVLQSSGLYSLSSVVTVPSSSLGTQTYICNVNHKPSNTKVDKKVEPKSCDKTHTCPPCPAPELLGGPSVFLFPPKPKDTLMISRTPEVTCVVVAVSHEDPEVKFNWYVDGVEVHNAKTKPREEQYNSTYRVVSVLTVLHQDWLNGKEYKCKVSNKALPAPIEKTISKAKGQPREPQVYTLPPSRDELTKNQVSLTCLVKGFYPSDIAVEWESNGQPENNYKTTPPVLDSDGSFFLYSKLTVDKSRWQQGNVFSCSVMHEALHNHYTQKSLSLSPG
light: B3 light
notes: LC1 and HCnegB (VH1-huIgG1_266A, D265A by Kabat)
- EC50 (LAMP1::histag): 0.07 nM
